Data from the supplement of paper PMC12764529.
± gives the half width of the 95% confidence interval.

Experiments:
[1] = folding stability dG unfold from chymotrypsin proteolysis; higher = more stable
Description: (§1)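 Folding stability of de novo designed mini-proteins (<80 aa, no Cys; designed by TrROS, TrMRF, ProteinMPNN and the joint model) was measured by cDNA display proteolysis with trypsin and chymotrypsin. Each protease was used at 11 concentrations in a threefold dilution series plus a no-protease condition. K50 was inferred by Bayesian fitting of sequencing counts, and dG unfold was derived against a sequence-predicted unfolded-state K50 (Tsuboyama et al. method). Sequences shown include variable-length N-terminal GS-type padding (SAGGSAGG...) inside a display construct carrying a PA tag. Rows were kept only if the AF2 dimer inter-PAE was >15, to exclude likely homo-oligomers.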

[2] = folding stability dG unfold (combined trypsin and chymotrypsin); higher = more stable
Description: as §1

Row | Sequence | folding stability dG unfold [1] | folding stability dG unfold [2]
1 | SAGGSAEEEEITIKLRITVYNEETGKPVKEIEIEIKVKKGQTLEQILEEAKKLLEEKGYKIVEIEISAGGSA [r15_195_TrROS_Hall] | 4.42 ± 0.31 kcal/mol | 4.52 ± 0.46 kcal/mol
2 | SAGGSAGGAEKIKKKLEELGFEIVKIEKESENKIKIYVKPDNPEKIKEIKEKISSSEVDEIGNESAGGSAGG [r6_83_TrMRF] | 0.486 ± 0.16 kcal/mol | -0.27 ± 0.17 kcal/mol
3 | SAGGSAGGAIAPGEEVEAEVTIVDPLTGKETTAKVTLTVHPTSVTITLPGGKPAVVPAAYVRFGSAGGSAGG [r6_436_TrMRF] | -0.176 ± 0.56 kcal/mol | -0.535 ± 0.4 kcal/mol
4 | SAGGSAGGGGGFRVKAEVKHGGKEYPMEILIDPSEGNINIQMPNGKSITLPLNDVKIDEVEPVNSAGGSAGG [r6_185_TrROS] | 0.341 ± 0.29 kcal/mol | 0.101 ± 0.34 kcal/mol
5 | SAGGSAGGGMTGATPTPRTVPLPGDRTATVYERPETGELLVELPGRRLRVSPAALAAGEVALEASAGGSAGG [r6_940_JUSTAS] | 0.113 ± 0.22 kcal/mol | < -1 kcal/mol
6 | SAGGSAGGGSMDPKVETEEFEEPGREVKREKLPDGLVVTEYTEPDGPKSTVVTDPETGKVTVIGSAGGSAGG [r6_159_JUSTAS] | 0.653 ± 0.079 kcal/mol | 0.082 ± 0.15 kcal/mol
7 | SAGGSAGGLKPGDTVTLPIEIWIMHMETKKDPNGDPEPRMEPYPYRIPITIPADDLNDGKITLTSAGGSAGG [r6_138_TrROS] | 0.0398 ± 0.46 kcal/mol | < -1 kcal/mol
8 | SAGGSAGGLLPDQRVRLRLTRTSPDGEPEEATVELTNIPSSITPSSTLTFPGEGDTWEVEEITTSAGGSAGG [r6_560_TrMRF] | -0.184 ± 0.21 kcal/mol | < -1 kcal/mol
9 | SAGGSAGGMSLEEAVEEAAAAVSPDETAEVVLTVEVSEPLTFPEPPDRLVTRPRTVRVRVRAPASAGGSAGG [r6_543_JUSTAS] | 0.488 ± 0.11 kcal/mol | 0.319 ± 0.19 kcal/mol
10 | SAGGSAGGMTARKTYEVEVPADDPDALADLAFDLPAGDTVYFRTPGPDLRAVVTDDVPVVEPAGSAGGSAGG [r6_550_TrMRF] | 0.0243 ± 0.18 kcal/mol | < -1 kcal/mol
11 | SAGGSAGGMTIPLPGSVEEIQELLGGPIKEYTEEAPGSGTLTLPNGTPITVERESPELLKEVLRSAGGSAGG [r6_19_JUSTAS] | -0.0581 ± 0.16 kcal/mol | -0.593 ± 0.37 kcal/mol
12 | SAGGSAGGMTPEEIRDALAAKLRAADPDVEVRPVRQEGDEVVVVVTRPATGERREVRVPADVPLSAGGSAGG [r6_446_JUSTAS] | 0.406 ± 0.19 kcal/mol | -0.0965 ± 0.18 kcal/mol
13 | SAGGSAGGNPDTPVLTRKTSETFNIAPGEVVKFPDSSVVTPTEDGTYTIDKTITYNGPPDKPLTSAGGSAGG [r6_635_JUSTAS] | 0.345 ± 0.13 kcal/mol | -0.279 ± 0.23 kcal/mol
14 | SAGGSAGGSAAEPPPPATIEVLVLNEDGYVYRAEIRVNEDGEITIEVEKIPVKPGESLEELSAGGSAGGSAG [r3_437_TrROS_Hall] | 4 ± 0.23 kcal/mol | 3.79 ± 0.35 kcal/mol
15 | SAGGSAGGSAAPEALPPRLVVPRPVLIVDKAPLEEVEVEELRKAAEEFARAVPDAVVLVDEESAGGSAGGSA [r18_499_TrMRF] | 0.788 ± 0.12 kcal/mol | 0.0223 ± 0.23 kcal/mol
16 | SAGGSAGGSAGAPSAPRSVPEVRLLNIDIPASADDPESVELARRLARAALENDAVVVINESAGGSAGGSAGG [r11_519_TrMRF] | 0.826 ± 0.11 kcal/mol | 0.268 ± 0.11 kcal/mol
17 | SAGGSAGGSAGAPVEVVITFESPTSRTTRTFPADLPEAEVERLAAALRAAHPEPVRVEPRSAGGSAGGSAGG [r11_515_JUSTAS] | -0.981 ± 0.48 kcal/mol | < -1 kcal/mol
18 | SAGGSAGGSAGASSLTLEELLKLHPGTVVRKERVELVEGKLVIDLVVEKVDPDTDKLTPESAGGSAGGSAGG [r11_20_JUSTAS] | 0.893 ± 0.043 kcal/mol | 0.409 ± 0.14 kcal/mol
19 | SAGGSAGGSAGAVTVTVDAAPDPLPDREYVVVTVERTLPSGEVLAESRVFDRAEEALEAASAGGSAGGSAGG [r11_792_TrMRF] | 0.432 ± 0.14 kcal/mol | -0.209 ± 0.26 kcal/mol
20 | SAGGSAGGSAGAWTDPDGNPYEVKEATVASLGPENPIVLVRFSENGELRLVPLEQALADLSAGGSAGGSAGG [r17_517_TrMRF] | 0.558 ± 0.16 kcal/mol | -0.0575 ± 0.25 kcal/mol
